Assays:
Details in all cases: EMSA: 24 mM Tris/HCl pH 7.5, 50 mM KCl, 10 mM MgCl2, 1 mM CaCl2, 0.1 mM EDTA, 5% glycerol, 0.05 ug/ul BSA, 0.05 ug/ul salmon sperm DNA, 20 ul, 20 min room …
Fis [1] = target: T1, Fis (UniProt Q88DK4); assay: DNase I footprinting
T1 sequence: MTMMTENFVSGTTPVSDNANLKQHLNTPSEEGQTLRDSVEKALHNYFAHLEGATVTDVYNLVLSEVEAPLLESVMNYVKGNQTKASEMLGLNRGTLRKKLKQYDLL

Fis [2] = target: T1, Fis; assay: EMSA
Fis [3] = target: T1, Fis; assay: EMSA with LF2 competition
Fis [4] = target: T1, Fis; assay: competition

| Sequence | binding (Fis [1]) | binding (Fis [2]) | binding (Fis [3]) | binding (Fis [4]) |
| --- | --- | --- | --- | --- |
| GCGCGTAATGCCCGAATTTCAAGGCTCTCAGCCAGTTACGAACGTTTTTTGTACTTAATCCTACGAATAAGGTTGCGAGTCGAATTTTACTTGCACCAGGTTTACCCATAAAATCAGCGCGATTGATCCGGCTGCGACATTTGGTCACTG (double strand) [Fis-nuo1-mut-Fis-nuo2] | binds more weakly | – | – | – |
| AGGATCCAATCGCCAGATGAACTTTACAAGGCGCAGAACAGCGAAATTCGAGCGCAGCAGTTCAAATGATATTAATTATCATTACAGGGTTTGCAATTCGTTACCCGCTGCAAGAAACATAATTAACAAAACCGCGCGTAATGCCCGAATTTCAAGGCTCTCAGCCAGTTACGAACG (double strand) [nuoA promoter Fis-nuo3-Fis-nuo4 (170 bp)] | binds | binds | – | – |
| GCGCGTAATGCCCGAATTTCAAGGCTCTCAGCCAGTTACGAACGTTTTTTGTACTTAATCCTACGAATAAATTTGCGACAGAAATTTTACTTGCACCAGGTTTACCCATAAAATCAGCGCGATTGATCCGGCTGCGACATTTGGTCACTG (double strand) [nuoA promoter Fis-nuo1-Fis-nuo2 (150 bp)] | binds | binds | – | – |
| AGGATCCAATCGCCAGATGAACTTTACAAGGCGCAGAACAGCGAAATTCGAGCGCAGCAGTGGCACCGACCTTAATTATCATTACAGGGTTTGCAATTCGTTACCCGCTGCAAGAAACATAATTAACAAAACCGCGCGTAATGCCCGAATTTCAAGGCTCTCAGCCAGTTACGAACG (double strand) [Fis-nuo3-Fis-nuo4-mut] | binds more weakly | – | binds more weakly | – |
| AGGATCCAATCGCCAGATGAACTTTACAAGGCGCAGAACAGCGAAATTCGAGCGCAGCAGTTCAAATGATATTAATTATCATTACAGGGTTTGCAATTCGTTACCCGCTGCAAGAAACATAAGTCAGCCAACCGCGCGTAATGCCCGAATTTCAAGGCTCTCAGCCAGTTACGAACG (double strand) [Fis-nuo3-mut-Fis-nuo4] | binds more weakly | – | binds more weakly | – |
| CGTGGGGTTATGCCGAGATAAGGCAAAAATTAGGACATTCGTTCTGTAAATATATGATTTAAAAGGTTATTCGAGAGGCCGTGGCTTGCTGGTCATCCACCGTCTGAGCTCAGC (double strand) [RF1] | – | – | – | no binding |
| GCGCGTAATGCCCGAATTTCAAGGCTCTCAGCCAGTTACGAACGTTTGTCCTACCTAATCCTACGAATAAATTTGCGACAGAAATTTTACTTGCACCAGGTTTACCCATAAAATCAGCGCGATTGATCCGGCTGCGACATTTGGTCACTG (double strand) [Fis-nuo1-Fis-nuo2-mut] | binds more weakly | – | binds more weakly | – |

— publication PMC6072106
